Patent publication US20210238298A1

B1: 1756/1757 (isotype control antibody fused to the 1040 CTLA4 binding region) (protein, part only; not given: Isotype control antibody chains, part only)
chain: APLKIQAYFNETADLPCQFANSQNLSLSELVVFWQDQENLVLNEVYLGKERFDSVDSKYMGRTSFDSDSWTLRLHNLQIKDKGRYQCIIHHKKPTGMINIHQMNSELSVLA
B2: anti-CD137 antibody 1204/1205 (antibody, IgG1, V domains shown)
VH: EVQLLESGGGLVQPGGSLRLSCAASGFTFSSYYMGWVRQAPGKGLEWVSGIGSYYGYTGYADSVKGRFTISRDNSKNTLYLQMNSLRAEDTAVYYCARAYYDYNYYYAYFDYWGQGTLVTVSS
VL: DIQMTQSPSSLSASVGDRVTITCRASQSISSYLNWYQQKPGKAPKLLIYAASSLQSGVPSRFSGSGSGTDFTLTISSLQPEDFATYYCQQSVPHYPFTFGQGTKLEIK

Key:
[1] = target: CTLA-4 (BMS, Orencia) (human) (UniProt P16410); test: cell-based or functional assay
CTLA-4 (BMS, Orencia) (human), sequence (P16410 38-152 limits assumed): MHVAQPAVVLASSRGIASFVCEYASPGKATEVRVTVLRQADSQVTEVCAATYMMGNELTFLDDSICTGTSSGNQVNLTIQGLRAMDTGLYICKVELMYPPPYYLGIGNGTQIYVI

[2] = target: CD137 chimera 1550 (1407): human CD137 with mouse domains 1, 2A and 2B (aa 24-86), on FreeStyle 293-F cells (human; mouse) (UniProt P20334); test: flow cytometry, 293-F transfectants
UniProt P20334, sequence (P20334 other isoform, or with tags, fused parts or gaps mutant limits assumed): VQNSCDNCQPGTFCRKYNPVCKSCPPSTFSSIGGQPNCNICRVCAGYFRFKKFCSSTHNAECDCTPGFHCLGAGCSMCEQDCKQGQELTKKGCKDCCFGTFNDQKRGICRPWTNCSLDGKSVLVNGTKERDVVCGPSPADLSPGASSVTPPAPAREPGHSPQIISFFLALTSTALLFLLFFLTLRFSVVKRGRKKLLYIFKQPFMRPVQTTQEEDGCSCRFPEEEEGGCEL

Row | Binder | Mean IL-2 level (pg/ml) induced at 1.5 nM (control) [1] [pg/mL] | relative binding (MFI sample/isotype control, normalised to full-length human CD137) [2]
1 | B1 | 1050 | –
2 | B2 | – | 0.07
